# Source: patent US20120058906A1 (published 2012)
# T1: rHuman Erythropoietin R/Fc Chimera, CF (R&D Systems Cat#963-ER) (human, UniProt P19235 25-250)
# T1 construct: Bought Fc chimera; also called EPO R/Fc; Epo R; Fc part of the bought chimera not given
# T1 sequence: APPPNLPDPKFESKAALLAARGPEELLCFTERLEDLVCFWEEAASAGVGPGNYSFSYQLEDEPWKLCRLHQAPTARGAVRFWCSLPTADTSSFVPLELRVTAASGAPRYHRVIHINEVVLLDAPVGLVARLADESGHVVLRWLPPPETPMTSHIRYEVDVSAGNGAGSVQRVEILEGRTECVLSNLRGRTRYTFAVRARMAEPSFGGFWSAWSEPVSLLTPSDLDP
# T2: rHuman Erythropoietin R/Fc Chimera, CF (R&D Systems Cat#963-ER) (human, UniProt P19235 25-250)
# T2 construct: Bought Fc chimera; also called EPO R/Fc; Epo R; not shown: Fc of the bought chimera
# T2 sequence: T1 sequence
# B1: Fab VH5-51_IGHD5-18*01>3_IGHJ4*01 & V3-4_IGLJ1*01 (Fab, V domains shown)
# VH: EVQLVQSGAEVKKPGESLKISCKGSGYSFTSYWIGWVRQMPGKGLEWMGIIYPGDSDTRYSPSFQGQVTISADKSISTAYLQWSSLKASDTAMYYCARRGYSYGYDYFDYWGQGTLVTVSS
# VL: QTVVTQEPSFSVSPGGTVTLTCGLSSGSVSTSYYPSWYQQTPGQAPRTLIYSTNTRSSGVPDRFSGSILGNKAALTITGAQADDESDYYCVLYMGSGISYVFGTGTKVTVL
# notes: Tested as a Fab made in E. coli; also called IGHV5-51*03
# B2: Fab VH1-46_IGHD6-6*01_IGHJ1*01_S102A_S103P_S104F & L6_IGKJ1*01_S31K (Fab, V domains shown)
# VH: QVQLVQSGAEVKKPGASVKVSCKASGYTFTSYYMHWVRQAPGQGLEWMGIINPSGGSTSYAQKFQGRVTMTRDTSTSTVYMELSSLRSEDTAVYYCAREEYAPFSAEYFQHWGQGTLVTVSS
# VL: EIVLTQSPATLSLSPGERATLSCRASQSVSKYLAWYQQKPGQAPRLLIYDASNRATGIPARFSGSGSGTDFTLTISSLEPEDFAVYYCQQRSNWPPWTFGQGTKVEIKR
# notes: Fab
# B3: Fab VH1-46_IGHD3-10*01_IGHJ4*01 & B3_IGKJ1*01 (Fab, V domains shown)
# VH: QVQLVQSGAEVKKPGASVKVSCKASGYTFTSYYMHWVRQAPGQGLEWMGIINPSGGSTSYAQKFQGRVTMTRDTSTSTVYMELSSLRSEDTAVYYCAREYYYGSGSYYNDYFDYWGQGTLVTVSS
# VL: not shown
# notes: also called IGHV1-46*01
# Columns and labels:
# [1] = biological target: T3, rHuman CD44/Fc Chimera, CF (R&D Systems Cat#3660-CD) (human, UniProt P16070 21-220); assay: ECL (MSD Multi-Spot) binding assay, antigen spotted on plate; Fab 6 nM; blank spot 191
# T3 construct: Bought Fc chimera; Fc part of the bought chimera not given
# [2] = biological target: T1, rHuman Erythropoietin R/Fc Chimera, CF …; assay: as above
# [3] = biological target: T4, rHuman Notch-1/Fc Chimera, CF (R&D Systems Cat#3647-TK) (human, UniProt P46531 19-526); assay: as above
# T4 construct: Bought Fc chimera; Fc part of the bought chimera not given
# [4] = biological target: T5, rHuman ErbB2/Fc Chimera, CF (R&D Systems Cat#1129-ER) (human, UniProt P04626 23-652); assay: as above
# T5 construct: Bought Fc chimera; also called HER2/neu; human epidermal growth factor 2 receptor; Fc part of the bought chimera not given
# [5] = biological target: T6, Recombinant Human DLL4 (R&D Systems Cat#1506-D4/CF) (human, UniProt Q9NR61 27-524); assay: as above
# T6 construct: Bought recombinant protein; also called delta-like protein 4; rHuman DLL4
# [6] = biological target: T7, rHuman Notch-1/Fc Chimera, CF (R&D Systems Cat#3647-TK) (human, UniProt P46531 19-526); assay: ECL (MSD multi-spot), antigen on plate, Fab 0.4 nM
# T7 construct: Bought Fc chimera; not shown: Fc of the bought chimera
# [7] = biological target: T8, Recombinant Human DLL4 (R&D Systems Cat#1506-D4/CF) (human, UniProt Q9NR61 27-524); assay: ECL (MSD multi-spot), antigen on plate, Fab 0.4 nM
# T8 construct: Bought recombinant protein; also called delta-like protein 4
# [8] = biological target: T9, rHuman HGF R/c-MET/Fc Chimera, CF (R&D Systems Cat#358-MT/CF) (human, UniProt P08581 25-932); assay: ECL (MSD multi-spot), antigen on plate, Fab 0.4 nM
# T9 construct: Bought Fc chimera; also called HGF R/Fc; not shown: Fc of the bought chimera
# [9] = biological target: T2, rHuman Erythropoietin R/Fc Chimera, CF …; assay: ECL (MSD multi-spot), antigen on plate, Fab 0.4 nM
# [10] = biological target: T10, rHuman ErbB2/Fc Chimera, CF (R&D Systems Cat#1129-ER) (human, UniProt P04626 23-652); assay: ECL (MSD multi-spot), antigen on plate, Fab 0.4 nM
# T10 construct: Bought Fc chimera; also called HER2/neu; not shown: Fc of the bought chimera
# [11] = biological target: T11, rHuman P-Cadherin/Fc Chimera, CF (R&D Systems Cat#861-PC) (human, UniProt P22223 108-654); assay: ECL (MSD multi-spot), antigen on plate, Fab 0.4 nM
# T11 construct: Bought Fc chimera; also called CDH3; not shown: Fc of the bought chimera
# [12] = biological target: T12, rHuman IGF-1 sR (insulin-like growth factor-1 soluble receptor), CF (R&D Systems Cat#391-GR) (human, UniProt P08069 31-932); assay: ECL (MSD multi-spot), antigen on plate, Fab 0.4 nM
# T12 construct: Bought soluble receptor; also called IGF-R1
# [13] = biological target: T13, rHuman EGF R/Fc Chimera, CF (R&D Systems Cat#344-ER) (human, UniProt P00533 25-645); assay: ECL (MSD multi-spot), antigen on plate, Fab 0.4 nM
# T13 construct: Bought Fc chimera; also called ErbB-1; not shown: Fc of the bought chimera
# [14] = biological target: T14, rHuman CD44/Fc Chimera, CF (R&D Systems Cat#3660-CD) (human, UniProt P16070 21-220); assay: ECL (MSD multi-spot), antigen on plate, Fab 0.4 nM
# T14 construct: Bought Fc chimera; not shown: Fc of the bought chimera
# [15] = biological target: T15, rHuman P-Cadherin/Fc Chimera, CF (R&D Systems Cat#861-PC) (human, UniProt P22223 108-654); assay: ECL (MSD multi-spot), antigen spotted on plate; Fab 1410 nM; blank spot 709
# T15 construct: Bought reagent; also called CDH3; Fc part of the bought chimera not given
# [16] = biological target: T16, rHuman Notch-1/Fc Chimera, CF (R&D Systems Cat#3647-TK) (human, UniProt P46531 19-526); assay: as above
# T16 construct: Bought reagent; Fc part of the bought chimera not given
# [17] = biological target: T17, rHuman IGF-1 sR (IGF-1 sR), CF (R&D Systems Cat#391-GR) (human, UniProt P08069 31-932); assay: as above
# T17 construct: Bought soluble receptor; also called insulin-like growth factor-1 soluble receptor; IGF-R1
# [18] = biological target: T18, rHuman CD44/Fc Chimera, CF (R&D Systems Cat#3660-CD) (human, UniProt P16070 21-220); assay: as above
# T18 construct: Bought reagent; Fc part of the bought chimera not given
# 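Further: blank spot per well as comparator with Hit at signal to blank ratio of 4 or more.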
binder,measurement,setting,value
B1,ECL signal,[1],547
same,ECL signal,[2],548
same,ECL signal,[3],464
same,ECL signal,[4],873
same,ECL signal,[5],1950
B2,ECL signal,[6],197 ECL signal
same,ECL signal,[7],1260 ECL signal
same,ECL signal,[8],119 ECL signal
same,ECL signal,[9],217 ECL signal
same,ECL signal,[10],159 ECL signal
same,ECL signal,[11],151 ECL signal
same,ECL signal,[12],65 ECL signal
same,ECL signal,[13],175 ECL signal
same,ECL signal,[14],190 ECL signal
B3,ECL signal,[15],1060
same,ECL signal,[16],1030
same,ECL signal,[17],426
same,ECL signal,[18],885
